Results reported in paper PMC2515335 (2008).

Target: T1, Importin-β3 (Homo sapiens, UniProt O00410)
T1 chain: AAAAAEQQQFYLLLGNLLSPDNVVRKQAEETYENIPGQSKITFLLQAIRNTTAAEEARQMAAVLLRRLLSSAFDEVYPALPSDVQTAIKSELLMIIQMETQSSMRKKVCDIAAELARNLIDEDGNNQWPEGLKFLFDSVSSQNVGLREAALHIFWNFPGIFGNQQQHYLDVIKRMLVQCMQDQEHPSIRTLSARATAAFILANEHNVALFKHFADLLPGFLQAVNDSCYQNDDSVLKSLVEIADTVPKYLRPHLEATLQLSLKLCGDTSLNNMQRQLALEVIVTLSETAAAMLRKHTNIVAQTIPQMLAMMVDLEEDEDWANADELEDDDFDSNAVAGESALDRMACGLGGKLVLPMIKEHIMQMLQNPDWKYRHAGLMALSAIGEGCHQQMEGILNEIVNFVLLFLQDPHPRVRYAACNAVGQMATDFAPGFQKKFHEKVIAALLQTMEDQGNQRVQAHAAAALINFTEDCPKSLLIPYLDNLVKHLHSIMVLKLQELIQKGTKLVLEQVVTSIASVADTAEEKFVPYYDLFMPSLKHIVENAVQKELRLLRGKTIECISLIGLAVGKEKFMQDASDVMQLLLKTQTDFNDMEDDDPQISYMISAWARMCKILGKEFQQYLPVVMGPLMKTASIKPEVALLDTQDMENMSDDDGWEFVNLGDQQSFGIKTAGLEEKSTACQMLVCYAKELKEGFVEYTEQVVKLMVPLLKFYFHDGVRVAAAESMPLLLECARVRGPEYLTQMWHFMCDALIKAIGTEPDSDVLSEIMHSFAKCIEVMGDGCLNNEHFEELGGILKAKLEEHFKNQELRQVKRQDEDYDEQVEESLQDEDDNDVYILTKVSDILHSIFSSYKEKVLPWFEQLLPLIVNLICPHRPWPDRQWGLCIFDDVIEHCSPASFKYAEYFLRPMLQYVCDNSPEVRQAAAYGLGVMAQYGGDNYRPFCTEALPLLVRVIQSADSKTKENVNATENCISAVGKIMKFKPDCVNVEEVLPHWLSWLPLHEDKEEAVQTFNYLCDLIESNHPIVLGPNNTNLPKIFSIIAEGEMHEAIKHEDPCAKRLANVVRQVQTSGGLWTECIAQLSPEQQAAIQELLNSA
Assay: native PAGE gel-shift mobility assay/fluorimetry

B1: Vpr 1-96 (protein)
chain: MEQAPEDQGPQREPYNEWTLELLEELKSEAVRHFPRIWLHNLGQHIYETYGDTWAGVEAIIRILQQLLFIHFRIGCRHSRIGVTRQRRARNGASRS
Kd: 660 nM
